T1: recombinant polyhistidine tagged mouse FcγRII (R&D Systems) (mouse, UniProt P08101 40-217, limits assumed)
T1 construct: Bought; also called FcRII
T1 sequence (looked up): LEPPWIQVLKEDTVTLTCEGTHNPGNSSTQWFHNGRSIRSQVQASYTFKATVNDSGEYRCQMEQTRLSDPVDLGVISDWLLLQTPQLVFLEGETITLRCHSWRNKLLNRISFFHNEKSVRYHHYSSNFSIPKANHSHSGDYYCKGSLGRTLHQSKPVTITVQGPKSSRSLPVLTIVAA

T2: recombinant polyhistidine tagged mouse FcγRIII (R&D Systems) (mouse, UniProt P08508 31-215)
T2 construct: Bought
T2 sequence (looked up): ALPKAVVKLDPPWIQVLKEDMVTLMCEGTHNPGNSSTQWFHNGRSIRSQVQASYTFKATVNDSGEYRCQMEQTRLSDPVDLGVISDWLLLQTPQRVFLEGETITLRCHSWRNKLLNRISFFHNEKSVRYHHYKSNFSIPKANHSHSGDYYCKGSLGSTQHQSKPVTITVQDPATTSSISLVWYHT

T3: recombinant polyhistidine tagged mouse FcγRIV (R&D Systems) (mouse, UniProt A0A0B4J1G0 21-203)
T3 construct: Bought
T3 sequence: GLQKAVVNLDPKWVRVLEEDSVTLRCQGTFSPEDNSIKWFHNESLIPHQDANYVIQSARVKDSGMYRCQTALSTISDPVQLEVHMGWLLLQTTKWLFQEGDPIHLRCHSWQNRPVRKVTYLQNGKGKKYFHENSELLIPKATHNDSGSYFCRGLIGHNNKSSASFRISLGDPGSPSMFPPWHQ

T4: recombinant polyhistidine tagged mouse FcγRI (R&D Systems) (mouse, UniProt P26151 25-297)
T4 construct: Bought; also called murine FcγRI
T4 sequence (looked up): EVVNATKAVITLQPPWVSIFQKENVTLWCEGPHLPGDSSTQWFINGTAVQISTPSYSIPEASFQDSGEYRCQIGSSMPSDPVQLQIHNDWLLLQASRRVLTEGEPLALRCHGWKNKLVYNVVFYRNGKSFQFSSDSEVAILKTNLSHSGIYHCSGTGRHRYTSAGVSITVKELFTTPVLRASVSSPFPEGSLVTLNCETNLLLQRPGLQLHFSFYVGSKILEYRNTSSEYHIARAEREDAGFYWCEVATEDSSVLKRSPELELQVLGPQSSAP


Assays:
[1] = biological target: T1, recombinant polyhistidine tagged mouse …; test: ELISA, His-tagged mouse receptor captured on copper-coated plate
Experimental: (§1) Commercially-available recombinant polyhistidine tagged mouse FcγRI, FcγRII, FcγRIII, and FcγRIV (R&D Systems) were diluted to 1 μg/ml in PBS and 100 μl/well was captured onto copper-coated plates (Pierce) overnight at 4° C. Plates were washed three times with wash buffer (0.15M NaCl, 0.02% Tween 20). Non-specific binding was blocked using 200 μl/well SuperBlock (Pierce) for 15 minutes at room temperature. Plates were washed three times as above. […] Plates were washed three times as above to remove unbound mAb. CNTO 860 variants that bound to plated receptors were detected using 100 μl/well HRP-labeled goat F(ab′)₂ anti-human IgG F(ab′)₂ (Jackson ImmunoResearch) diluted 1:5,000 in PBS incubated at room temperature for 1 hour. Plates were washed five times using wash buffer as above, and developed using 100 μl/well TMB Stable Stop substrate (Fitzgerald Industries) stopped with 0.5M HCl. Absorbance was detected at 450 nm.
(§2) All binding assays were in an ELISA format, with recombinant soluble receptor captured on coated EIA plates.

[2] = biological target: T2, recombinant polyhistidine tagged mouse …; test: as above
Experimental: as §1, §2

[3] = biological target: T3, recombinant polyhistidine tagged mouse …; test: as above
Experimental: as §1, §2

[4] = biological target: T5, recombinant human His-tagged FcγRIIIa (extracellular domain made at Centocor) (human, UniProt P08637 17-208); test: ELISA
T5 construct: extracellular domain; also called CD16a; recombinant, soluble, human FcγRIIIa
T5 sequence (P08637 17-208): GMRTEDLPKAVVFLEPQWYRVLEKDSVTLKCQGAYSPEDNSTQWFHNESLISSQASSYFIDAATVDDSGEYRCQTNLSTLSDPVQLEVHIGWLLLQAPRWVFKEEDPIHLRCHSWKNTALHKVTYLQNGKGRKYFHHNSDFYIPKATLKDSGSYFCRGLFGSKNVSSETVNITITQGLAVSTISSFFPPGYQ
Experimental: FcγRI (CD64) ELISA —50 μl of a 1 μg/ml solution of recombinant human His-tagged FcγRI (extracellular domain, R&D Systems #1257-FC-050) in ELISA buffer (PBS, pH 7.4, 4 mg/ml BSA, 0.01% Tween-20) was added to each well of HisGrab 96 well plates (Pierce #15142) (Powers G., Notebook 9006, pp. 166-168, 180-181). The plate was incubated with shaking for 3 hours. The plates were washed 3× with 300 μl of wash buffer (PBS, 0.01% Tween-20) on a plate washer. Serial dilutions of the CNTO860 antibody Fc-variant samples were made in ELISA buffer and 50 μl per well of each titration were added in duplicate to the FcγRI-coated plates. The plates were incubated with shaking for 1 hour. The plates were washed 3× with 300 μl of wash buffer on a plate washer. 50 μl of a 1:10,000 dilution of HRP-labeled goat F(ab′)₂ anti-human IgG F(ab′)₂ (Jackson Immunoresearch # 109-036-097) in ELISA buffer was added to each well. The plates were incubated with shaking for 30 minutes. The plates were washed 3× with 300 μl of wash buffer on the plate washer. 50 μl per well TMB substrate (RDI #RDI-TMBSU-1L) was added to each well and developed for 5 minutes. The reaction was stopped by adding 100 μl 0.2 N sulfuric acid. The plates were read at OD450 on an Envision plate reader.
FcγRIIIa (CD16a) ELISA—A human FcγRIIIa binding assay was done in ELISA format similar to the assay for FcγRI above. 50 μl of a 2 μg/ml solution of recombinant human His-tagged FcγRIIIa (extracellular domain made at Centocor) in ELISA buffer (PBS, 4 mg/ml BSA, 0.01% Tween-20) was added to each well of HisGrab 96 well plates (Pierce #15142) (Powers G., Notebook 10378, 19-23). The plate was incubated for 3 hours at room temp. The plates were blocked with 200 μl of Starting Block (Pierce #15142) for 30 min, and then washed 3× with 300 μl of wash buffer (PBS, 0.01% Tween-20) on a plate washer. Serial dilutions of the CNTO 860 test samples were made in Starting Block buffer and 50 μl per well of each titration were added in duplicate to the FcγRIIIa-coated plates. The plates were incubated for 1 hour. The plates were washed 3× with 300 μl of wash buffer on a plate washer. 50 μl of a 1:10,000 dilution of HRP-labeled goat F(ab′)2 anti-human IgG F(ab′)2 (Jackson Immunoresearch # 109-036-097) in Starting Block buffer was added to each well. The plates were incubated for 30 minutes.

[5] = biological target: T4, recombinant polyhistidine tagged mouse …; test: ELISA, His-tagged mouse receptor captured on copper-coated plate
Experimental: as §1, §2

[6] = biological target: FcγRIIIa on NK cells of human PBMC (human, UniProt P08637 17-254); test: cell-based or functional assay
FcγRIIIa on NK cells of human PBMC, sequence (P08637 17-254): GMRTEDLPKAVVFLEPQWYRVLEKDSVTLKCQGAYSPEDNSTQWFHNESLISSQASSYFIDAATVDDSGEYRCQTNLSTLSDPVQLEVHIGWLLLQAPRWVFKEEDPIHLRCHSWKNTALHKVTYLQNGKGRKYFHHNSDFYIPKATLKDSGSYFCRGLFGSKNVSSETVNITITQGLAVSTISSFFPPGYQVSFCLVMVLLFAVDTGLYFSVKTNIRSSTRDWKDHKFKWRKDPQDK

Row | Binder | ECOD1 (concentration required for an O.D. value of 1.0) [1] [ng/mL] | ECOD1 (concentration required for an O.D. value of 1.0) [2] [ng/mL] | ECOD1 (concentration required for an O.D. value of 1.0) [3] [ng/mL] | fold better binding than WT from CHO [4] [fold] | ECOD1 (concentration required for an O.D. value of 1.0) [5] [ng/mL] | EC25 (ng/ml), ADCC of HCT116 cells by human PBMC [6] [ng/mL]
1 | CHO-CNTO 860 WT (antibody, human IgG1, kappa, N-linked glycan at heavy chain Asn297 (CHO-type, highly fucosylated); not carried by the letters, Anti-human tissue factor human IgG1/kappa; transiently expressed in CHO cells (plasmids p4145/p4146; CHO Abs typically 95% fucosylated), purified by protein A; also called CNTO 860 WT from CHO cells; WT (CHO cell-derived); copies: 2 + 2) heavy: not shown light: DIQMTQSPSSLSASVGDRVTITCKASQDIRKYLNWYQQKPGKAPKLLIYYATSLADGVPSRFSGSGSGTDYTFTISSLQPEDIATYYCLQHGESPYTFGQGTKLEITRTVAAPSVFIFPPSDEQLKSGTASVVCLLNNFYPREAKVQWKVDNALQSGNSQESVTEQDSKDSTYSLSSTLTLSKADYEKHKVYACEVTHQGLSSPVTKSFNRGEC | 4000 | 4000 | 60 | – | – | –
2 | YB2/0-CNTO 860 WT (antibody, human IgG1, kappa, Heavy chain N297 carries the YB2/0-type N-linked glycan (40-60% fucosylated); not carried by the letters., Anti-human tissue factor human IgG1/kappa; stably expressed in rat YB2/0 cells (p2401/p2402; YB2/0 Abs typically 40-60% fucosylated), purified by protein A; also called WT (YB2/0 cell-derived); WT from YB2/0 cells; copies: 2 + 2) heavy: not shown light: DIQMTQSPSSLSASVGDRVTITCKASQDIRKYLNWYQQKPGKAPKLLIYYATSLADGVPSRFSGSGSGTDYTFTISSLQPEDIATYYCLQHGESPYTFGQGTKLEITRTVAAPSVFIFPPSDEQLKSGTASVVCLLNNFYPREAKVQWKVDNALQSGNSQESVTEQDSKDSTYSLSSTLTLSKADYEKHKVYACEVTHQGLSSPVTKSFNRGEC | 3000 | 4000 | 30 | ~3 | 12000 | –
3 | YB2/0-CNTO 860 V264I/I332E (antibody, human IgG1, kappa, N-linked glycan at heavy chain Asn297 (YB2/0-type, low fucose); not carried by the letters, IgG1/kappa Fc variant; stably expressed in YB2/0 cells (p4180/p2402); EU numbering; also called V264I/I332E (YB2/0 cell-derived); copies: 2 + 2) heavy: not shown light: DIQMTQSPSSLSASVGDRVTITCKASQDIRKYLNWYQQKPGKAPKLLIYYATSLADGVPSRFSGSGSGTDYTFTISSLQPEDIATYYCLQHGESPYTFGQGTKLEITRTVAAPSVFIFPPSDEQLKSGTASVVCLLNNFYPREAKVQWKVDNALQSGNSQESVTEQDSKDSTYSLSSTLTLSKADYEKHKVYACEVTHQGLSSPVTKSFNRGEC | 1600 | 6000 | 7 | – | 3000 | 0.12
4 | YB2/0-CNTO 860 A330I (antibody, IgG1, N-linked glycan at heavy chain Asn297 (YB2/0-type, low fucose); not carried by the letters, IgG1/kappa Fc variant; stably expressed in YB2/0 cells (p4177/p2402); EU numbering; also called A330I (YB2/0 cell-derived); A330I mutant expressed in YB2/0 cells; copies: 2 + 2) heavy: not shown light: DIQMTQSPSSLSASVGDRVTITCKASQDIRKYLNWYQQKPGKAPKLLIYYATSLADGVPSRFSGSGSGTDYTFTISSLQPEDIATYYCLQHGESPYTFGQGTKLEITRTVAAPSVFIFPPSDEQLKSGTASVVCLLNNFYPREAKVQWKVDNALQSGNSQESVTEQDSKDSTYSLSSTLTLSKADYEKHKVYACEVTHQGLSSPVTKSFNRGEC | 7000 | 8000 | 15 | – | 25000 | 0.7
